Results on three molecules are retold here after article PMC3912326.

Where two headings read alike, the source gives them in different places.

Experiment in all cases: fluorescence anisotropy
Background: In fluorescence polarisation assays a small probe gives low polarisation when free and higher when bound to something large.

Series [1] concerns the target T1, mouse transferrin receptor (mTfR) (Mus musculus, UniProt Q62351 89-763).
Series [2] has as its target human transferrin receptor (hTfR) (Homo sapiens, UniProt P02786 89-760).
In series [3] the target is T1, mouse transferrin receptor (mTfR). The source holds these as a separate data set.
Series [4] has as its target transferrin (Tf) (UniProt P02787 20-698).
Series [5] deals with T1, mouse transferrin receptor (mTfR). This is another data set of the same source.

T1 sequence (Q62351 89-763): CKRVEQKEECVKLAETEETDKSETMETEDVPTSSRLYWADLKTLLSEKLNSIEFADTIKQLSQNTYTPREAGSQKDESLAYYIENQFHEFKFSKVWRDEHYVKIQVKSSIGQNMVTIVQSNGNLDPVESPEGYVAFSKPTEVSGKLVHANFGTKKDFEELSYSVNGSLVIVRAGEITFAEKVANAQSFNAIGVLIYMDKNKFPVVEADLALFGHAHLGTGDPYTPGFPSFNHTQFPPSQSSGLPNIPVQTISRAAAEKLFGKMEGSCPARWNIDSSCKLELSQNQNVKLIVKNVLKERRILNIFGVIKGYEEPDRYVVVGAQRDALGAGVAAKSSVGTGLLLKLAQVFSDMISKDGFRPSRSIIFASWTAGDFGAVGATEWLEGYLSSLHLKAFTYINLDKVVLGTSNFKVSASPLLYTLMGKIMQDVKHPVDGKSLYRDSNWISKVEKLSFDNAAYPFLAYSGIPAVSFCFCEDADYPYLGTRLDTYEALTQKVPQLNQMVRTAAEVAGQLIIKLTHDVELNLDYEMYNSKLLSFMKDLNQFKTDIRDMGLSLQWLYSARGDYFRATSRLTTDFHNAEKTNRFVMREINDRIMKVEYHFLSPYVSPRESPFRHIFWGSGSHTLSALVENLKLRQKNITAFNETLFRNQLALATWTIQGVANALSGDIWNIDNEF
transferrin (Tf), sequence (P02787 20-698): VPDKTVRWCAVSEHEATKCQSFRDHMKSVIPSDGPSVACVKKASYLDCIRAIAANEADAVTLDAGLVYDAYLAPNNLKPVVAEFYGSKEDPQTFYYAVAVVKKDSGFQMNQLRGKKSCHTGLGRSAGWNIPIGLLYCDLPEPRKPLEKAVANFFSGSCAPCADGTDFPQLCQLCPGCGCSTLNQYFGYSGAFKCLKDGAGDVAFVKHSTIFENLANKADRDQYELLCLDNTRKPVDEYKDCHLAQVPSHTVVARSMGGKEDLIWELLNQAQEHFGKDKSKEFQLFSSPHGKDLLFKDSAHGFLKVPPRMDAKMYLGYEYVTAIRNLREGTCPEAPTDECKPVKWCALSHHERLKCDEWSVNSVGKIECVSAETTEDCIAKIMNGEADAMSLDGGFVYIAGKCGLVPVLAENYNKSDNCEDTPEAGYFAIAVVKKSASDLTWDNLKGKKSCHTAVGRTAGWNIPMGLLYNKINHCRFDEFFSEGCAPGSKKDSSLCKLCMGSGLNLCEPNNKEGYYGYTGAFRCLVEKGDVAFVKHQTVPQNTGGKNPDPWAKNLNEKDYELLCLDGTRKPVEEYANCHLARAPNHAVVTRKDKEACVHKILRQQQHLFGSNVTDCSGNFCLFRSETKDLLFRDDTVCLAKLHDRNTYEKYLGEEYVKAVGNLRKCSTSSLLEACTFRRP
human transferrin receptor (hTfR), sequence (P02786 89-760): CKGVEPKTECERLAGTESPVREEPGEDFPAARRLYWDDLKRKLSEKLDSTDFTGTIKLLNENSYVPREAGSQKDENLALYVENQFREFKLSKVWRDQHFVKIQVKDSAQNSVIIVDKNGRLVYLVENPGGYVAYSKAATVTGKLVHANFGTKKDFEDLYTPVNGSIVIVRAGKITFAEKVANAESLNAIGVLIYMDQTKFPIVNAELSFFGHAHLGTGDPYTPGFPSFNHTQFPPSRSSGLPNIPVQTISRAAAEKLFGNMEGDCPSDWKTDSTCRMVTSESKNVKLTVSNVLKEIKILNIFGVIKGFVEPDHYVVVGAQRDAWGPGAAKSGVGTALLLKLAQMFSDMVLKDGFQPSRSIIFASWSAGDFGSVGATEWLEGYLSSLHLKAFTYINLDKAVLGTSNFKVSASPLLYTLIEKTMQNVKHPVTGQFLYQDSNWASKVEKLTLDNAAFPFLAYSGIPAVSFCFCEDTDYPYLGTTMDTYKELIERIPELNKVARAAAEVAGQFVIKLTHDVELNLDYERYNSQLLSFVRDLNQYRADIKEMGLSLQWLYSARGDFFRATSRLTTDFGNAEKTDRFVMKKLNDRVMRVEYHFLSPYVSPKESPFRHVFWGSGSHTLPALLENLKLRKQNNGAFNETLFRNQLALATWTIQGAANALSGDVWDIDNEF

B1: GS24min (structured_DNA)
DNA: CACTTAGTATCGCTACGTTCTTTGGTTCCGTTCGG
modifications: 5' amino C6 linker
Take B1: binding in series [1] was characterised by a dissociation constant (Kd) of 1200 ± 390 nM.

B2: GS24 (equilibrium mixture A-1F:A-2F 20:80) (structured_DNA)
DNA: GCGTGTGCACACGGTCACTTAGTATCGCTACGTTCTTTGGTTCCGTTCGG
modifications: 5' amino C6 linker
Turning to B2, the Kd (commonly the constant that tells how readily two partners part at equilibrium) in series [2] turned out to be 1000 ± 250 nM; in series [3], 250 ± 40 nM. For the same molecule, the binding result in series [4] was “no binding”.

B3: GS24 fold A-2F (purified active fold) (structured_DNA)
DNA: B2 DNA
modifications: 5' amino C6 linker
Turning to B3, the Kd in series [5] turned out to be 130 ± 30 nM.
